Literature values as cited in paper PMC10366146.

Target: VEGFR2 (Homo sapiens) (UniProt P35968)
Chain of UniProt P35968 (P35968 20-1356): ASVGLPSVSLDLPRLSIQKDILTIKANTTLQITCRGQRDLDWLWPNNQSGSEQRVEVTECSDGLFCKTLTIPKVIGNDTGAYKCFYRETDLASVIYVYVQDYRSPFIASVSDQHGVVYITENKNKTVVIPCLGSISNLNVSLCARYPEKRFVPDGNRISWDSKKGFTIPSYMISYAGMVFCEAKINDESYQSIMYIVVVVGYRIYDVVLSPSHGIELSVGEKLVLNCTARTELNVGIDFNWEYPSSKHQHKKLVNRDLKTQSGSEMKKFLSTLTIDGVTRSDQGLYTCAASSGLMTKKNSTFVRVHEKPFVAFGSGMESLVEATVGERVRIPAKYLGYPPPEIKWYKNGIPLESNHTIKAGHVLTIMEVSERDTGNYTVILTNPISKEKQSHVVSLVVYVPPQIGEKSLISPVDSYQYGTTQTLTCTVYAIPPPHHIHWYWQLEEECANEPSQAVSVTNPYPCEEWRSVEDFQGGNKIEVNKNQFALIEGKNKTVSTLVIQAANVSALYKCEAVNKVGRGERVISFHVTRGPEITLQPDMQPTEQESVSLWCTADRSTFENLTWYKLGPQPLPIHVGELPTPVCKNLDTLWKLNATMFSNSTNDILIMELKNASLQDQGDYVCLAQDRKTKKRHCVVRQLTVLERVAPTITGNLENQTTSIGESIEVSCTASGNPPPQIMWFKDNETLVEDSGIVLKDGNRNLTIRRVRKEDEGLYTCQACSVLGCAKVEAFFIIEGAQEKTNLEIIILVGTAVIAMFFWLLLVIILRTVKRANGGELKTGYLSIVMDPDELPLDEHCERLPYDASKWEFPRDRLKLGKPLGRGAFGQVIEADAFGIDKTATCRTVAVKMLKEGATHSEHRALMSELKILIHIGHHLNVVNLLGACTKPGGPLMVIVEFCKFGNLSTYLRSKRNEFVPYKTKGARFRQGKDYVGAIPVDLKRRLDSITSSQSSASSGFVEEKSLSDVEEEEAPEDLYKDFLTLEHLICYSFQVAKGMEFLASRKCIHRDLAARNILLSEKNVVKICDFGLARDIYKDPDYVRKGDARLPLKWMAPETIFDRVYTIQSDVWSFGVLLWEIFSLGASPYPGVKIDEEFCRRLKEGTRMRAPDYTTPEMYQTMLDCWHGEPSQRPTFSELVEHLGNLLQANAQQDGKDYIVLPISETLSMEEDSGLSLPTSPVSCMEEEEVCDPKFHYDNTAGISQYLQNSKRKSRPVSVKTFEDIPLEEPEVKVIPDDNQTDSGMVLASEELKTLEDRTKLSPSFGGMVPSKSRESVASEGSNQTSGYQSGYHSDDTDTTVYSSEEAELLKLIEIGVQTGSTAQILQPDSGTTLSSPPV

## VEGF121 VEGF121 (from UniProt P15692)
  Kd: 5.5 nM
